Reference: the supplement of paper PMC9170038

Test system: MS2 coat protein
Experiment: apparent KD of MS2 coat protein; designed switch direction (-1 OFF switch, 1 ON switch): -1; higher = weaker reporter binding
In short: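 An oligonucleotide input, 200 uM small-molecule ligand, or no input was present during titration of SNAP-549-labelled MS2 coat protein, which was doubled from 0.7 or 1.5 nM to 3 µM. Designed RNA switches had been transcribed on Illumina chips by stalled E. coli RNA polymerase. Apparent KD per design is the median over clusters of curves fitted to normalised cluster fluorescence.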

[1] = Eterna round: R95, input ligand: microRNA oligo, concentration not stated
[2] = input ligand: microRNA oligo, concentration not stated
[3] = Eterna round: R95, input ligand: FMN 200 uM
[4] = Eterna round: R95, input ligand: none

| Sequence | apparent KD of MS2 coat protein [1] [nM] | apparent KD of MS2 coat protein (input ligand: FMN 200 uM) [nM] | apparent KD of MS2 coat protein (input ligand: none) [nM] | apparent KD of MS2 coat protein [2] [nM] | apparent KD of MS2 coat protein [3] [nM] | apparent KD of MS2 coat protein [4] [nM] |
| --- | --- | --- | --- | --- | --- | --- |
| GCAUACUAAGGAUAUACAUGAGGAUCACCCAUGUUGCCAAAUGGCAGCAUCACCUGGAGUAGAAGGUAGAUGUA [Atanbi] (puzzle: Exclusion 3) | 29.7 | – | – | – | – | – |
| AAGUCGACGGUGAGGAUAUUGGUUGAACGACAGAUCAAGAAGGCACAUGAGGAUCACCCAUGUGGGUAACGUCG [Brourd's EX4 #38] (Eterna round: R97, puzzle: Brourd's mod of Exclusion 4) | – | 34.5 | 19.1 | – | – | – |
| GCGGACUAGAACGUGAGUUCUGAGACAUGAGGAUCACCCAUGUAGGAUAUCGAUUCGUUUCGAAUCGAGAAGGGCAUAGUCCGC [JL denovo 12] (Eterna round: R96, puzzle: Exclusion NG 3) | – | 21.3 | 20.3 | 14.2 | – | – |
| AUGUUGCGAGGAUAUAUUUACUUGUUGUUAUUUGGUUGGGAACAUGAGGAUCACCCAUGUAGAAGGUGCAUAAC [JR_Ex2_Sub035] (Eterna round: R97, puzzle: Exclusion 2) | – | 58.9 | 62.5 | – | – | – |
| GAUCAACAUGAGGAUCACCCAUGUGAGGAUAUUGACUUGCUCACUUUCCCAUCAGAGUCGAGAAGGCGCAUCUG [1986#21] (Eterna round: R97, puzzle: Exclusion 1) | – | 28.1 | 40.8 | – | – | – |
| CCCUGACAUGAGGAUCACCCAUGUUAGGAUAUAACAUUUGACACGACAGUGUGAAGUGUUAGAAGGGAUAUGGG [-28.4, -26.7 kcal, A 31%] (Eterna round: R97, puzzle: Exclusion 1) | – | 36.2 | 22.1 | – | – | – |
| UAAUGUAUAUAGGAUAUCUAGCUGGUAACAGCUAGAGAAGGAUGUACAUGAGGAUCACCCAUGUAAAUCAGUGA [Ex6/14-B2] (Eterna round: R97, puzzle: Exclusion 6) | – | 186 | 41.6 | – | – | – |
| CGGAUGUGAGGAUAUACAUGAGGAUCACCCAUGUGUGCCAGCUAGCUGACUGGCACUUGUAGAAGGCACGUCUG [JL-ex3-2.14 Brourd mod] (puzzle: Exclusion 3) | 11.1 | – | – | – | – | – |
| UGUCUACAUGAGGAUCACCCAUGUCAGGAUAUGCUCGAUAUAUGGAAACAUAUAUCGAGCAGAAGGGACUAGCG [Jieuxxlusion 5 - Jieux - Exclusion 1] (Eterna round: R97, puzzle: Exclusion 1) | – | 53.5 | 28.4 | – | – | – |
| GCGAAAGCAAGCAAGUGAAACAUGAGGAUCACCCAUGUCCUCAUUUGCUCGUCUUGUAAGCUAUGCGAAAGCAUAGC [Sensor 3, v1 - 5] (puzzle: Sensor v3, turn-off variant 1) | 53.3 | – | – | – | 12.1 | 11.9 |
| GGUCUACAUGAGGAUCACCCAUGUAAGGAUAUCGUCACUGGAGCUGCGGCUCCAGUGACGAGAAGGUACGUAAU [E1/12-A3] (Eterna round: R97, puzzle: Exclusion 1) | – | 33.7 | 32.4 | – | – | – |
| ACCUUACAUGAGGAUCACCCAUGUCAGGAUAUCUCGGGCGGCCAAGGGCCGGCCGCCCAGAGAAGGGACGAGGA [Inusla] (puzzle: Exclusion 1) | 12.1 | – | – | – | – | – |
| GUCAGCUCGUGAGGAUAUAUAUACAUGAGGAUCACCCAUGUAAGAUCAGCACUUCGGUGCAGUAUAUAGAAGGCACGAGCUGAC [ENG2/13-A1] (Eterna round: R96, puzzle: Exclusion NG 2) | – | 46.1 | 29.1 | 21.6 | – | – |
| GUAGAGACAGGAUAUACAUGAGGAUCACCCAUGUAAGGAGGAAGAGAGAGGAGAAGGAGUAGAAGGGUCAGAGG [JR_Exclu3_Sub029] (puzzle: Exclusion 3) | 35.3 | – | – | – | 29.2 | 35.2 |
| UUUUUAGAUGAAGGAUAUACUUAACAUGAGGAUCACCCAUGUGGUGUUGUGAGUGAGUGAGUUUAGUAGAAGGUCAAUUAUUUU [JMF's solution 21] (Eterna round: R96, puzzle: Exclusion NG 2) | – | 187 | 260 | 151 | – | – |
| AAUAACAAGCCGAUCCUCAACAUGAGGAUCACCCAUGUGCUCGUCUUGUAAAGUACUAUCACGAAAGUGAUAGUACA (Eterna round: R97, puzzle: Sensor, turn-off variant 1) | – | 319 | 419 | – | – | – |
| CUCGUGCAGCUUUGCUGUACGAGUACAUGAGGAUCACCCAUGUAGGAUAUGGUACGCUUUGCGUGCCAGAAGGACGUGCGUUAG [JL EXNG3 1.41] (Eterna round: R96, puzzle: Exclusion NG 3) | – | 78.6 | 28.9 | 25.9 | – | – |
| GUUUGCACGCUGCGGUCCUACAUGAGGAUCACCCAUGUGGUCUGGUGGCGUGGGUCGCCGGACUUGGCUCGUCUUGA [salish99_S_TOV1_R5_038] (Eterna round: R97, puzzle: Sensor, turn-off variant 1) | – | 17.2 | 16.9 | – | – | – |

| Sequence | apparent KD of MS2 coat protein [1] [nM] | apparent KD of MS2 coat protein (input ligand: FMN 200 uM) [nM] | apparent KD of MS2 coat protein (input ligand: none) [nM] | apparent KD of MS2 coat protein [2] [nM] | apparent KD of MS2 coat protein [3] [nM] | apparent KD of MS2 coat protein [4] [nM] |
| --- | --- | --- | --- | --- | --- | --- |
| GUCAGCUCGUGAGGAUAUAUAUUAACAUGAGGAUCACCCAUGUAAGAUCAGCUUCGGCAGUUAAUAUAGAAGGCACGAGCUGAC [ENG2/14-A1] (Eterna round: R96, puzzle: Exclusion NG 2) | – | – | – | 137 | – | – |
| UCCUCACAUGAGGAUCACCCAUGUUAGGAUAUCUUAGAGCGCGAAUGACAGUUCUUUAAGAGAAGGAACUGGGC [Exclusion 1 (MOD1.2 of Edarti)] (Eterna round: R97, puzzle: Exclusion 1) | – | 50.5 | 20.1 | – | – | – |
| AACUGGCGAGGAUAUACUUGGCAUAUAGCCUAAUUUCGGCUACUUGAGGAUCACCCAAGUAGAAGGUGCACGGC [Anlaxebe] (Eterna round: R97, puzzle: Exclusion 2) | – | 16.5 | 15.1 | – | – | – |
| UAUUCACAUGAGGAUCACCCAUGUCAGGAUAUAGAAGCGUAGUCCGCAAGAAAGCUUACUAGAAGGGACGUAUU [EX1 B.22] (Eterna round: R97, puzzle: Exclusion 1) | – | 18.8 | 18.5 | – | – | – |
| UAGUUCUGAGGAUAUUCUCCAAAGCACAUGAGGAUCACCCAUGUCCAGUUAUGGCUUUCUGAAGAAGGCAGUCUUA [Eternabot (L2) Solution 49] (Eterna round: R97, puzzle: Exclusion 5) | – | 87.9 | 36.7 | – | – | – |
| UUUACAAGCUUAAGAUCCCACAUGAGGAUCACCCAUGUUGCUGCCGGUGACGGUAGCAUAACUUAUGCUCGUCUUAU [JL TOV1 3.60] (Eterna round: R97, puzzle: Sensor, turn-off variant 1) | – | 177 | 188 | – | – | – |
| CAUUAUUAUCGAGGAUAUCCUAUUGAAAUUCUGGGAGAAGGCGGACUCAACAUGAGGAUCACCCAUGUAAGACGGGUGCUAGGG [Ex NG1 #25] (Eterna round: R96, puzzle: Exclusion NG 1) | – | 202 | 157 | 93.1 | – | – |
| AGUAGUUCAGGAUAUGAUGUUAAAUACAUGAGGAUCACCCAUGUAGAUCCUGAAUUUACAUCAGAAGGGAAUAACU [JR_Ex5_Sub082] (Eterna round: R97, puzzle: Exclusion 5) | – | 91.7 | 25.5 | – | – | – |
| GAGAAUUCAUAGGAUAUCGUAUGGAUAAUUUAACGAGAAGGAUGAACAUGAGGAUCACCCAUGUGGUAUCAUGG [salish99_ex6_r3_002] (puzzle: Exclusion 6) | 87.5 | – | – | – | 83.5 | 95 |
| CCGACAUGAGGAUAUCCAUCUGGAUCAGACUAGAUCCUGAUGGAGAAGGUACAUGAGGAUCACCCAUGUUACGG [Eli 4x 4.46] (Eterna round: R97, puzzle: Exclusion 4) | – | 372 | 330 | – | – | – |
| GAGUACUCAGGAUAUGCAUGAGUAGUGAUGUAGAGAGUGUGACAUGAGGAUCACCCAUGUAGAAGGGAGGAAUG [Version #1] (Eterna round: R97, puzzle: Exclusion 2) | – | 338 | 105 | – | – | – |
| AGUGCUGACACGUUGGUGUUAGUACCAUAAGCUUGUGAUACAUGAGGAUCACCCAUGUCCUCAUAAGCUCGUCUUAU [salish99_TOv2_r2_097] (puzzle: Sensor v3, turn-off variant 2) | 669 | – | – | – | 28.6 | 26.8 |
| GAUCCACAUGAGGAUCACCCAUGUGAGGAUAUGAUACUAUGUACUUCGGUACAUAGUAUCAGAAGGCAUAUGAA [Ex1-3: 47] (Eterna round: R96, puzzle: Exclusion 1) | – | 199 | 41.7 | 33.2 | – | – |
| UAUUAGUAAGGAUAUCUCGUCAUGGACGUGAGUCCAUGACGAGAGAAGGUACAUGAGGAUCACCCAUGUCCAUU [Mod of Fisker 20 - Jieux - Exclusion 4] (Eterna round: R97, puzzle: Exclusion 4) | – | 16.5 | 14.1 | – | – | – |
| AGGUGUAGAGGAUAUACAGUGUAUUACAUGAGGAUCACCCAUGUCCCUCAAUGAGUGUCAGUAGAAGGCUACACCA [Omei Ex5 C3] (Eterna round: R97, puzzle: Exclusion 5) | – | 329 | 403 | – | – | – |
| UUUAAUUUUUUUUUUUUACAAGCUUUUUGCUCGUCUUAUACAUGAGGAUCACCCAUGUAGAUGGAGGGUAAAUUAUC [JMF 86] (puzzle: Sensor v3, turn-off variant 2) | 27.9 | – | – | – | 17.4 | 14.5 |
| GGAUUUACUGAGGAUAUUACAUCACCCGAUUGAUAAGAAGGCAGAACAUGAGGAUCACCCAUGUGGGUAGUCAA [Polaris3] (Eterna round: R97, puzzle: Exclusion 6) | – | 70.1 | 111 | – | – | – |
